According to patent publication US7227009B2, “MT-SP1 polynucleotides and polypeptides” (Catalyst Biosciences, Inc., priority 1999, dated 2007):
Read-outs that look alike come from different tables or passages of the source.

B1: ecotin M84R/M85R: Engineered version of ecotin, macromolecular inhibitor of chymotrypsin-fold serine proteases (protein)
chain: AESVQPLEKIAPYPQAEKGMKRQVIQLTPQEDESTLKVELLIGQTLEVDCNLHRLGGKLENKTLEGWGYDYYVFDKVSSPVSTRRACPDGKKEKKFVTAYLGDAGMLRYNSKLPIVVYTPDNVDVKYRVWKAEEKIDNAVVR

Assays:
[1] = molecular target: T1, His-MT-SP1 protease domain (Homo sapiens, UniProt Q9Y5Y6); experiment: Substrate kinetics of purified His-MT-SP1 protease domain; format: biochemical
T1 construct: made in house; host or cells: E. coli X-90 (pQE30 vector)
T1 sequence (Q9Y5Y6 615-855 limits assumed, other chains not shown): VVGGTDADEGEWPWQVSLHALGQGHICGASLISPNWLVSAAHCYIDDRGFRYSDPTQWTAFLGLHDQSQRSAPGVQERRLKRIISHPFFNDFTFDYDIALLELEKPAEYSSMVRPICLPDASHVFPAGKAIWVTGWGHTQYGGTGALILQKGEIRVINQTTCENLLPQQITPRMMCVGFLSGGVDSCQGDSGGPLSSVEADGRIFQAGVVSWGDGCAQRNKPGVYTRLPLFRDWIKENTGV
Description: The purified serine protease domain was titrated with 4-methylumbelliferyl p-guanidinobenzoate (MUGB) to obtain an accurate concentration of enzyme active sites^(iii). Enzyme activity was monitored at 25° C. in assay buffer containing 50 mM Tris pH 8.8, 50 mM NaCl, and 0.01% Tween 20. The final concentration of substrate Spectrozyme tPA ranged from 1 μM–400 μM. Enzyme concentrations ranged from 40 pM–800 pM. Active site titrations were performed on a Fluoromax-2 spectrofluorimeter. Measurements were plotted using the KaleidaGraph program (Synergy, Reading, Pa.), and the Km, kcat, and kcat/Km for Spectrozyme tPA was determined using the Michaelis-Menten equation.

[2] = molecular target: T2, His-tagged MT-SP1 serine protease domain (Homo sapiens, UniProt Q9Y5Y6); experiment: Inhibition of MT-SP1 protease domain with ecotin and ecotin M84R/M85R; format: biochemical
T2 construct: made in house; host or cells: E. coli X-90 (pQE30 vector)
T2 sequence (Q9Y5Y6 615-855 limits assumed, other chains not shown): as above
Description: Ecotin and ecotin M84R/M85R were purified from E. coli as described in copending application Ser. Nos. 09/290,513 and 09/289,830, both filed on Apr. 12, 1999. Various concentrations of ecotin or ecotin M84R/M85R were incubated with the His-tagged serine protease domain in a total volume of 990 μL of buffer containing 50 mM NaCl, 50 mM Tris-HCl (pH 8.8), 0.01% Tween 20. 10 μL of Spectrozyme tPA was added, yielding a solution containing 100 μM substrate. The final enzyme concentration was 63 pM, and the ecotin and ecotin M84R/M85R concentration ranged from 0.1 nM to 50 nM. The data were fit to the equation derived for kinetics of reversible tight-binding inhibitors (Morrison (1969) Biochim. Biophys. Acta 185: 269–286, Williams and Morrison (1979) Methods. Enzymol. 63: 437–467), and the values for apparent Ki were determined.

explanted rat VP = experiment: Rodent ventral prostate (VP) explant culture; format: cell-based; conditions: for ductal branching morphogenesis and differentiation of rat ventral prostate: explant culture, testosterone-induced
Excerpt: One useful model system for studying many issues that are pertinent to prostate cancer is the development of the rodent ventral prostate (VP) in explant cultures. Macromolecular inhibitors of serine proteases of the chymotrypsin fold, ecotin and ecotin M84R/M85R (see copending application Ser. Nos. 09/290,513 and 09/289,830, both filed on Apr. 12, 1999), inhibit ductal branching morphogenesis and differentiation of the explanted rat VP. […] Thus unidentified serine proteases may play a role in growth and prevention of apoptosis in prostate epithelial cells in this system.

PC-3 primary tumor = experiment: PC-3 implanted nude mice, inhibitor treatment; format: in vivo; conditions: treated seven weeks, compared to PBS-treated mice after four weeks
Excerpt: Another well characterized model that is derived from human prostate cancer epithelial cells is the PC-3 cell line (Kaighn et al. (1979) Invest. Urology 17: 16–23). The PC-3 cell line expresses uPA as assayed by enzyme-linked immunosorbent assay (ELISA) and by Northern blotting of PC-3 mRNA (Yoshida et al. (1994) Cancer Res. 54: 3300–3304). […] Metastasis from the primary tumors similarly were similarly lower in the inhibitor-treated mice compared to PBS treated mice. Inhibition was not unexpected with ecotin M84R/M85R treatment, since uPA has been implicated in metastasis. […] Thus identification of the serine proteases expressed by PC-3 prostate cells may provide insight into the role of these proteases in cancer and prostate growth and development. In this example we have extended the strategy of using the polymerase chain reaction (PCR) with degenerate oligonucleotide primers that were designed using conserved sequence homology (Sakanari et al. (1989) Proc. Natl. Acad. Sci. USA 86: 4863–4867; Wiegand et al. (1993) Gene 136: 167–175, Kang et al. (1992) Gene 110: 181–187) to identify additional serine proteases made by cancer cells. […]

PC-3 cells = experiment: Subcutaneous coinjection of PC-3 cells with inhibitor; format: in vivo; conditions: subcutaneous coinjection with PC-3 cells, compared to PC-3 cells and saline
tumor = experiment: Ecotin injected intraperitoneally, tumor growth; format: in vivo
uPA [3] = molecular target: T3, uPA (Homo sapiens, UniProt P00749); conditions: cited from earlier work
uPA [4] = molecular target: T3, uPA; experiment: Inhibition of uPA; format: biochemical

Molecule | hydrolysis of pNA substrate by the MT-SP1 protease domain [1] | inhibition of MT-SP1, in words [2] | apoptosis in rat ventral prostate model (explanted rat VP) | ductal branching morphogenesis and differentiation of rat ventral prostate (explanted rat VP) | primary tumor size (PC-3 primary tumor) | primary tumor size (PC-3 cells) | tumor growth (tumor) | inhibition of uPA, in words (uPA [3]) | inhibitor potency against uPA (uPA [3]) | kcat [1] | Km ([1]; 25° C., 50 mM Tris pH 8.8, 50 mM NaCl, 0.01% Tween 20) | kcat ([1]; 25° C., pH 8.8) | fold more potent inhibitor of uPA compared to ecotin (uPA [4])
NC(N)=NCCC[C@H](N)C(=O)Nc1ccc([N+](=O)[O-])cc1 [H-Arg-pNA, arginyl-pNA] | does not cleave |  |  |  |  |  |  |  |  |  |  |  | 
ecotin: Macromolecular inhibitor of serine proteases of the chymotrypsin fold, purified from E. coli |  | potent, subnanomolar inhibitors | enhances | inhibits | significantly smaller | decrease | inhibited | poor, micromolar inhibitor | 2800 nM |  |  |  | 
hexahydrotyrosyl-Gly-Arg-pNA [Spectrozyme tPA] |  |  |  |  |  |  |  |  |  | 260 s⁻¹ | 31.4 ± 4.2 µM | 2.6×10^2±6.5 s^−1 | 
B1 |  | potent, subnanomolar inhibitors | enhances | inhibits | significantly smaller | decrease |  |  | 1 nM |  |  |  | 2800 fold
